Laboratory results from patent US20210079109A1 (Regeneron, published 2021).
Values belong to the binder of their own block, whether it stands above or below them.

How the values were obtained:
[1] = target: T1, recombinant human CD63 extracellular loop 2 expressed with a C-terminal Myc-Myc-hexahistidine (human); assay: SPR Biacore, mAb captured, 37C
T1 construct: also called hCD63 EC loop 2-MMH; human CD63 EC loop 2-MMH
Experimental: (§1) Equilibrium dissociation constants (KD) for different CD63 (EC2) loop reagents binding to purified anti-CD63 monoclonal antibodies were determined using a real-time surface plasmon resonance based Biacore T200 biosensor or Biacore 2000 biosensor. All binding studies were performed in 10 mM HEPES, 150 mM NaCl, 3 mM EDTA, and 0.05% v/v Surfactant Tween-20, pH 7.4 (HBS-ET) running buffer at 25° C. and 37° C. The Biacore CMS sensor chip surface was first derivatized by amine coupling with either a rabbit anti-mouse Fc specific polyclonal antibody (GE Healthcare, Cat #BR100838) or an anti-human Fab kit (GE Healthcare, Cat #28958325) to capture anti-CD63 monoclonal antibodies. […] The association rate (Kₐ) and dissociation rate (kd) were determined by fitting the real-time binding sensorgrams to a 1:1 binding model with mass transport limitation using Scrubber 2.0c curve-fitting software. Binding dissociation equilibrium constant (KD) and dissociative half-life (t½) were calculated from the kinetic rates as: […]
(§2) Binding kinetics parameters for human CD63 EC loop 2 protein binding to different anti-CD63 monoclonal antibodies of the invention at 25° C. and 37° C. are shown in Tables 6 through 9.

[2] = target: T2, recombinant human CD63 extracellular loop 2 expressed with a C-terminal human Fc tag (human); assay: SPR Biacore, mAb captured, 37C
T2 construct: also called hCD63 EC loop 2-hFc; human CD63 EC loop 2-Fc
T2 sequence (chain, as listed by the source limits assumed): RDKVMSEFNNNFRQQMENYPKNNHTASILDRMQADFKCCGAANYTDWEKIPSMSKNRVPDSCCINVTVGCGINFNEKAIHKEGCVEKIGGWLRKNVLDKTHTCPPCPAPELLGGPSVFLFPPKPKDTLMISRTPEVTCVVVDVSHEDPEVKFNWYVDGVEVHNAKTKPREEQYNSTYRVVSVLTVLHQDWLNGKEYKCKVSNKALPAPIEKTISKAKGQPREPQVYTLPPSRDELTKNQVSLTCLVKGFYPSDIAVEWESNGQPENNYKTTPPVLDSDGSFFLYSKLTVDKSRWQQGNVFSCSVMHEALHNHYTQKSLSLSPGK
Experimental: as §1, §2

[3] = target: T1, recombinant human CD63 extracellular …; assay: SPR Biacore, mAb captured, 25C
Experimental: as §1, §2

[4] = target: T2, recombinant human CD63 extracellular …; assay: SPR Biacore, mAb captured, 25C
Experimental: as §1, §2

[5] = target: T3, human CD63 (human, UniProt P08962 2-238); assay: ECL, LNCAP cells
T3 construct: stably transfected in NIH3T3/hCD63; The cell line is named under assay; also called hCD63
T3 sequence: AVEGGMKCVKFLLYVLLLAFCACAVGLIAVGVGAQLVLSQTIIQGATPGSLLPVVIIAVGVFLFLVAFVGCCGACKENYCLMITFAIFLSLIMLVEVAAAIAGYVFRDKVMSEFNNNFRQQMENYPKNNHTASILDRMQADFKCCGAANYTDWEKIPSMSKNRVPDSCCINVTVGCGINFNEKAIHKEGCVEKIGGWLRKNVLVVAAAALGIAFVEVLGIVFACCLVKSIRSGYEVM
Experimental: (§3) LNCAP cells were determined to have a lower human CD63 copy number than U87MG cells. Non-transfected NIH3T3 cells, which have no detectable expression of human CD63 by fluorescence activated cell sorting (FACS), were included as a negative control.
(§4) Briefly, cell lines were rinsed once in PBS buffer without Ca²⁺/Mg²⁺ and incubated for 10 minutes at 37° C. with Enzyme Free Cell Dissociation Solution (Millipore, Cat #S-004-C) to detach the cells. Cells were then washed once with PBS with Ca²⁺/Mg²⁺ and counted with a Cellometer™ Auto T4 cell counter (Nexcelom Bioscience, LLC). Approximately 2.0×10⁴ NIH3T3/hCD63, LNCAP, U87MG or NIH3T3 cells were seeded separately onto 96-well carbon electrode plates […]) and were then incubated for one hour at 37° C. Nonspecific binding sites were blocked with 2% BSA (w/v) in PBS with Ca²⁺/Mg²⁺ for one hour at room temperature (RT). Solutions containing anti-CD63 antibodies or isotype control antibodies at a range of concentrations (1.7 pM to 100 nM) in 0.5% BSA (w/v) in PBS with Ca²⁺/Mg²⁺, as well as control buffer alone, were then added in duplicate to the plate-bound NIH3T3/hCD63, LNCAP, U87MG or NIH3T3 cells and incubated for one hour at RT. Plates were subsequently washed to remove unbound antibodies using an AquaMax2000 plate washer with a cell washing head (MDS Analytical Technologies). […] Plates were washed and then incubated with Read Buffer (MSD, Cat #R92TD-2) according to the manufacturer's instructions. Luminescent signals were measured using a SECTOR Imager (MSD).

[6] = target: T3, human CD63; assay: ECL, U87MG cells
Experimental: as §3, §4

[7] = target: T3, human CD63; assay: ECL, NIH3T3/hCD63 cells
Experimental: as §3, §4

T1 sequence (chain, as listed by the source limits assumed): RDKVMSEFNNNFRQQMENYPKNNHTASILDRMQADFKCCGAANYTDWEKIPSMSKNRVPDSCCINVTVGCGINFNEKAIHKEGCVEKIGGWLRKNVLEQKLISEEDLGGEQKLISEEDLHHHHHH

- 100 nM Ag Bound (RU) [1]: 3 RU
- 100 nM Ag Bound (RU) [2]: 156 RU
- Kd [2]: 7.92 nM
- koff [2]: 0.00457 s⁻¹
- kon [2]: 577000 M⁻¹ s⁻¹
- t1/2 [2]: 3 min
- 100 nM Ag Bound (RU) [3]: 10 RU
- 100 nM Ag Bound (RU) [4]: 194 RU
- Kd [4]: 2 nM
- koff [4]: 0.000728 s⁻¹
- kon [4]: 364000 M⁻¹ s⁻¹
- t1/2 [4]: 16 min
- EC50 [5]: 6.7 nM
- binding ratio at 3.7 nM vs NIH3T3 [5]: 8 fold
- EC50 [6]: 17 nM
- binding ratio at 3.7 nM vs NIH3T3 [6]: 62 fold
- EC50 [7]: 2.5 nM
- binding ratio at 3.7 nM vs NIH3T3 [7]: 227 fold
B1: H4H11993P2 (antibody, V domains shown)
VH: QVQLVESGGGLVKPGGSLRLSCAASGFTFSDYYMNWIRQAPGKGLEWVSYINGGGYTMYYADSVKGRFTISRDNAKNSLYLQMNSLRAEDTAVYYCARDRRTTVSIDYWGQGTLVTVSS
VL: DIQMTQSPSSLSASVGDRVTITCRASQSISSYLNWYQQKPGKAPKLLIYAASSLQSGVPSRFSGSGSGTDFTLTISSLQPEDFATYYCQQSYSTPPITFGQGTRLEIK

- 100 nM Ag Bound (RU) [1]: 56 RU
- Kd [1]: 10.6 nM
- koff [1]: 0.00591 s⁻¹
- kon [1]: 559000 M⁻¹ s⁻¹
- t1/2 [1]: 2 min
- 100 nM Ag Bound (RU) [2]: 160 RU
- Kd [2]: 0.895 nM
- koff [2]: 0.000777 s⁻¹
- kon [2]: 868000 M⁻¹ s⁻¹
- t1/2 [2]: 15 min
- 100 nM Ag Bound (RU) [3]: 61 RU
- Kd [3]: 4.89 nM
- koff [3]: 0.00188 s⁻¹
- kon [3]: 384000 M⁻¹ s⁻¹
- t1/2 [3]: 6 min
- 100 nM Ag Bound (RU) [4]: 142 RU
- Kd [4]: 0.523 nM
- koff [4]: 0.00036 s⁻¹
- kon [4]: 688000 M⁻¹ s⁻¹
- t1/2 [4]: 32 min
- EC50 [5]: 0.18 nM
- binding ratio at 3.7 nM vs NIH3T3 [5]: 14 fold
- EC50 [6]: 0.47 nM
- binding ratio at 3.7 nM vs NIH3T3 [6]: 132 fold
- EC50 [7]: 0.32 nM
- binding ratio at 3.7 nM vs NIH3T3 [7]: 175 fold
B2: H2M12454N (antibody, V domains shown)
VH: QVQLVESGGGLVKPGGSLRLSCAVSGFTYTDYFMNWIRQAPGKGLEWVSYISNSGAIKYYADSVKGRFTISRDNAKNSLYLQMNGLRADDTAVYYCVRDPRSYYGFDYWGQGTLVTVSS
VL: DIQMTQSPSSLSASVGDRVTITCRASQSISNFLNWYQQKPGKAPRLLIYGASNLQSGVPSRFSGGGSGTDFTLTISSLQPADFATYYCQQSFSNPPVTFGQGTRLEIN
notes: also called H2bM12454N

- 100 nM Ag Bound (RU) [1]: 74 RU
- Kd [1]: 145 nM
- koff [1]: 0.0192 s⁻¹
- kon [1]: 132000 M⁻¹ s⁻¹
- t1/2 [1]: 0.6 min
- 100 nM Ag Bound (RU) [2]: 342 RU
- Kd [2]: 0.045 nM
- koff [2]: 1.91e-05 s⁻¹
- kon [2]: 425000 M⁻¹ s⁻¹
- t1/2 [2]: 603 min
- 100 nM Ag Bound (RU) [3]: 106 RU
- Kd [3]: 19.9 nM
- koff [3]: 0.00371 s⁻¹
- kon [3]: 186000 M⁻¹ s⁻¹
- t1/2 [3]: 3.1 min
- 100 nM Ag Bound (RU) [4]: 291 RU
- Kd [4]: 0.149 nM
- koff [4]: 6.2e-05 s⁻¹
- kon [4]: 417000 M⁻¹ s⁻¹
- t1/2 [4]: 186 min
- EC50 [5]: 1.9 nM
- binding ratio at 3.7 nM vs NIH3T3 [5]: 11 fold
- EC50 [6]: 1.7 nM
- binding ratio at 3.7 nM vs NIH3T3 [6]: 99 fold
- EC50 [7]: 0.94 nM
- binding ratio at 3.7 nM vs NIH3T3 [7]: 266 fold
B3: H4H11997P2 (antibody, V domains shown)
VH: QVQLVESGGGLVKPGGSLRLSCAASGFTFSDYYMNWIRQAPGKGLEWITYINNGGYTKYYADSVKGRFIISRDNTKNSVHLQMNSLRAEDTAVYYCVRDPRMYYGMDVWGQGTTVTVSS
VL: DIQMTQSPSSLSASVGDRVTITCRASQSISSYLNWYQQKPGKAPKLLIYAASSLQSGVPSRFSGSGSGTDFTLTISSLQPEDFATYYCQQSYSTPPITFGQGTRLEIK

- 100 nM Ag Bound (RU) [1]: 68 RU
- Kd [1]: 7.25 nM
- koff [1]: 0.00324 s⁻¹
- kon [1]: 447000 M⁻¹ s⁻¹
- t1/2 [1]: 4 min
- 100 nM Ag Bound (RU) [2]: 177 RU
- Kd [2]: 0.582 nM
- koff [2]: 0.000445 s⁻¹
- kon [2]: 765000 M⁻¹ s⁻¹
- t1/2 [2]: 26 min
- 100 nM Ag Bound (RU) [3]: 79 RU
- Kd [3]: 3.1 nM
- koff [3]: 0.000922 s⁻¹
- kon [3]: 298000 M⁻¹ s⁻¹
- t1/2 [3]: 13 min
- 100 nM Ag Bound (RU) [4]: 169 RU
- Kd [4]: 0.391 nM
- koff [4]: 0.000199 s⁻¹
- kon [4]: 510000 M⁻¹ s⁻¹
- t1/2 [4]: 58 min
- EC50 [5]: 0.23 nM
- binding ratio at 3.7 nM vs NIH3T3 [5]: 51 fold
- EC50 [6]: 0.53 nM
- binding ratio at 3.7 nM vs NIH3T3 [6]: 405 fold
- EC50 [7]: 0.4 nM
- binding ratio at 3.7 nM vs NIH3T3 [7]: 608 fold
B4: H2M12392N (antibody, V domains shown)
VH: QVQLVESGGGLVKPGGSLRLSCATSGFTFGDYYMNWFRQAPGKGLDWVSYISSSGSTRYYADSVRGRFTISRDNAKNSLYLQMNSLRAEDTAVYYCVRDLRYYYGMDVWGQGTTVTVSS
VL: not shown
notes: also called H2aM12392N
